We go through 6 proteins from PMC6743065, “Structural and functional characterization of the mitochondrial complex IV assembly factor Coa6” (Life Science Alliance, 2019).

Series [1] deals with the molecule itself. Put plainly: crystal structure; ^W59CCoa6 25 mg/ml in 20 mM Tris-MES pH 8.0, 150 mM NaCl; crystallized with 0.1 M Bis-Tris pH 5.7, 0.23 M MgCl2, 29% PEG 3350, 20°C; 2.2 Å; four molecules per asymmetric unit.
Series [2] concerns the molecule itself. Put plainly: SEC; analytical SEC, Superdex 200 Increase 3.2/300, 100 μg protein, 20 mM Tris-MES pH 8.0, 150 mM NaCl, 0.05 ml/min; elution volumes compared with that of ^WTCoa6. For orientation: SEC sorts molecules by how far they enter the pores of the column.

Positions count from the first letter of the chain named. In names and notes the source's numbering stands.

B1: pathogenic mutant protein ^W59CCoa6 (natural protein, human)
chain: GPLGSMAAPSMKERQVCCGARDEYWKCLDENLEDASQCKKLRSSFESSCPQQWIKYFDKRRDYLKFKEKFEAGQFEPSETTAKS
notes: five residues left at the N terminus after cleavage of the GST tag with PreScission Protease; Coa6, human; residues 47-125 of the full-length Coa6 isoform 1 (UniProtKB Q5JTJ3) with the patient mutation W59C; In the crystal, Cys59 of each chain is joined by an intermolecular disulfide to Cys59 of another chain; not shown: GST, N-terminal, cleaved
Regarding B1, the binding result in series [1] was “binds”.

B2: ^Y97A/Y104ACoa6 (natural protein, human)
chain: B1 chain with C18W, Y56A, Y63A
notes: five residues left at the N terminus after cleavage of the GST tag with PreScission Protease; Coa6, human; residues 47-125 of the full-length Coa6 isoform 1 (UniProtKB Q5JTJ3), mutations introduced into the ^WTCoa6 ORF; not shown: GST, N-terminal, cleaved
By stoichiometry N is commonly meant a count of units in the complex or per binding partner. Take B2: in series [2], the “stoichiometry N” value came out at 2.

B3: human wild-type Coa6 (^WTCoa6) (natural protein)
chain: B1 chain with C18W
notes: five residues left at the N terminus after cleavage of the GST tag with PreScission Protease; Coa6, human; isoform 3, composed of residues 47-125 of the full-length Coa6 isoform 1 (UniProtKB Q5JTJ3); the N-terminal residue is numbered Met47; Fully oxidized: intramolecular disulfides Cys58-Cys90 and Cys68-Cys79; also called Coa6 isoform 3; not shown: GST, N-terminal, cleaved
As for B3, in series [2], the “stoichiometry N” value was 2.

B4: ^R101ACoa6 (natural protein, human)
chain: B1 chain with C18W, R60A
notes: five residues left at the N terminus after cleavage of the GST tag with PreScission Protease; Coa6, human; residues 47-125 of the full-length Coa6 isoform 1 (UniProtKB Q5JTJ3), mutation introduced into the ^WTCoa6 ORF; not shown: GST, N-terminal, cleaved
Regarding B4, in series [2], the “stoichiometry N” value is 2.

B5: ^Y97ACoa6 (natural protein, human)
chain: B1 chain with C18W, Y56A
notes: as for B4
Take B5: the “stoichiometry N” value in series [2] was determined as 2.

B6: ^Y104ACoa6 (natural protein, human)
chain: B1 chain with C18W, Y63A
notes: as for B4
Turning to B6, the “stoichiometry N” value in series [2] worked out at 2.
